Results reported in patent US20240173424A1, “ANTI-NECTIN-4-ANTIBODY EXATECAN CONJUGATES” (EMERGENCE THERAPEUTICS AG, priority 2021, published 2024).

Key:
human Nectin-4 [1] = experiment: Flow cytometry of MDA-MB231 transfected with Flag-tagged Nectin-4; format: binding; settings: MDA-MB231 transfected with Nectin-4, 0.3 ng/ml-5 μg/mL
Procedure: Detection by flow cytometry. • Flow cytometry analysis of MDA-MB231 transfected with the N-terminal Flag-tagged epitope of Nectin-4 using a dose range (0.3 ng/ml-5 μg/mL) of Ch-15A7.5 or Ch-5A12.2 antibodies Parental MDA-MB231 cells are included as controls. Cells were then stained with phycoerythrin conjugate goat anti human Fc antibody. The normalized mean fluorescence intensity is shown. Inlay: staining of parental MDA-MB231 cells with anti Nectin-1, -2 and -3 mAbs ([…]). Mean fluorescence intensity is represented.
Human breast carcinoma cell line MDA-MB231 (ATCC, Manassas, VA) was cultured in DMEM supplemented with 10% fetal bovine serum, 50 IU/mL penicillin, 50 μg/mL streptomycin and 2 mM glutamine. The cells were transfected with expression vector p3XFLR4.C1 containing a PVRL4 cDNA. Human triple negative breast cancer cell line SUM190PT (BioIVT, Westbury, NY) was cultures in Ham's F12 medium with 5% fetal bovine serum, 1% non-essential amino acids, 1% Hepes, 1% insulin, 1 μg/mL hydrocortisone, 6.8 ng/ml Triiodo L-tyrosine, 100 IU/mL penicillin, 100 μg/mL streptomycin and 2 mM glutamine. Chinese hamster ovary CHO cell line was cultured in DMEM supplemented with 10% fetal bovine serum, 100 IU/mL penicillin, 100 μg/mL streptomycin and 2 mM glutamine. […]

human Nectin-4 [2] = experiment: ELISA on coated Nectin-4 Fc fusion proteins (Nec4-VCC, Nec4-V); format: binding; settings: statement in FIG. 3 legend on the competitor mAbs
Procedure: Detection by ELISA. • Ninety-six-wells plates were coated, as indicated, with 5 μg/mL Nectin-1 extracellular domain Fc fusion recombinant protein (Nec1-VCC), or Nectin-4 IgV-like domain Fc fusion recombinant protein (Nec4-V), or Nectin-4 extracellular domain Fc fusion recombinant protein (Nec4-VCC) overnight at 4° ° C.
FIG. 3: Characterization of Ch-15A7.5 epitope. Competition assay was performed by ELISA. • Ninety-six-wells plates were coated with 5 μg/mL of Nectin-4 extracellular domain Fc fusion recombinant protein (Nec4-VCC) overnight at 4° C. Binding of peroxidase-conjugated Ch-15A7.5 mAb (5 μg/mL) was measured in presence of increasing concentrations (2.75 ng/ml-6 μg/mL) of Rituximab, Ch-15A7 mAb, Enfortumab (HA22), Ch-N41 mAb and Ch-14A5 mAb.
A sandwich enzyme-linked immunosorbent assay was used to control specificity of Ch-15A7.5 antibody and to perform competition assays between different mAbs. Ninety-six-wells plates were coated with 10 nM of Nectin-4-VCC-Fc, Nectin-1-VCC-Fc (entire extracellular part) or Nectin-4-V-Fc (comprising only the IgV domain) overnight at +4° C. After washes and saturation with PBS 1% BSA, cells were incubated for 2 hours at 25° C. with 10 nM of peroxidase-conjugated Ch-15A7.5 mAb. In the case of competition, binding of 0.5 nM of peroxidase conjugated Ch-15A7.5 mAb was measured in the presence of variable concentration (0.018 nM to 40 nM) of “cold” mAb. One hundred μL of peroxidase substrate was added (One Step ABST, Pierce), and OD was red at 405 nm.

SUM190PT cells = experiment: SUM190PT orthotopic xenograft in NSG mice; format: in vivo, mouse; settings: SUM190 grafted NSG mice, single intravenous injection, 4 or 8 mg/kg
Source text: Treatment of mice (single intravenous injection) started when tumors reached approximately 150 mm^3. […] Tumor sizes (n=10/group) were monitored with a caliper twice a week thereafter and sizes were reported with the following formula (LxlxhxPi/6).
NOD/SCID (nonobese diabetic/severe combined immunodeficient)/gc null mice (NSG) were obtained from Charles River Laboratory (Margate, UK). Six to seven-weeks old females (n=5/group) were orthotopically xenografted bilaterally with the SUM190PT (0.5×10^6) cells embedded in Matrigel. Treatment with ADC was performed as mentioned in the respective experiments. Tumor sizes (n=10/group) were monitored with a caliper twice a week thereafter and sizes were reported with the following formula (LxlxhxPi/6).

[3] = molecular target: T1, Nectin-4 expressed by tumors and Nectin-4 expressed by human keratinocytes (Homo sapiens, UniProt Q96NY8); experiment: Differential binding to tumor cells and human keratinocytes; settings: in vitro differentiated Nectin-4 expressing keratinocytes
T1 construct: Cells or cell lines (10,000-50,000) expressing Nectin-4 (naturally or transfected); endogenous in cells; host or cells: SUM190/SUM190PT (also SUM149 in IHC), NHEK differentiated with 0.1 mM CaCl2, human skin sections
T1 sequence (Q96NY8 32-510): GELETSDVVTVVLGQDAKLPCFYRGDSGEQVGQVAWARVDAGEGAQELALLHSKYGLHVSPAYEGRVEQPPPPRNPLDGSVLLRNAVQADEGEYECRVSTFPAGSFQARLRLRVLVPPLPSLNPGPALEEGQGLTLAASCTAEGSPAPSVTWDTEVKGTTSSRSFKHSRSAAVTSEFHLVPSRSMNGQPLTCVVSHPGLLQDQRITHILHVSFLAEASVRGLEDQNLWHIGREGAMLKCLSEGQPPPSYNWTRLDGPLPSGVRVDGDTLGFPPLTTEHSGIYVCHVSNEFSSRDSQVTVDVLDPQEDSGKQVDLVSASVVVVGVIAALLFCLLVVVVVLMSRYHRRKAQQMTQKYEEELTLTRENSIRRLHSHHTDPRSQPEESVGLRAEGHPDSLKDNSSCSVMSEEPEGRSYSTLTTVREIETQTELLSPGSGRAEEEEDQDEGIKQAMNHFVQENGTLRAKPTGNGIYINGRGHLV
Source text: FIG. 6: Differential binding to Nectin-4 expressed by tumor cell line and normal differentiated human keratinocytes. […] Cells were then stained with phycoerythrin conjugate goat anti human Fc antibody. Normalized mean fluorescence intensities are shown. Non-linear curve fitting (4 parameters) was done with GraphPad Prism 9 software. Horizontal bar is placed at 50% of maximum staining intensity obtained with HA22 antibody on SUM190 cells.
FIG. 7: Differential binding to Nectin-4 expressed by tumor cell line and normal differentiated human keratinocytes. Detection by flow cytometry. • Flow cytometry analysis of TNBC cell line (SUM190, A) and normal differentiated (0.1 mM CaCl2) human keratinocytes (NHEK, B) using 5 μg/mL of HA22 (Enfortumab), Ch-5A12.2, Ch-15A7.5, and Ch-8F06. Cells were then stained with phycoerythrin conjugate goat anti human Fc antibody. Normalized mean fluorescence intensities are shown.
FIG. 8: Differential binding to Nectin-4 expressed by tumor cell line and human keratinocytes. Detection by immuno-histochemistry. Cryo-preserved OCT-embedded blocks of high expressing levels of Nectin-4 tumor cell line (SUM190), low expressing levels of Nectin-4 tumor cell line (SUM149), human and cynomolgus skin were processed for staining with 15A7.5 mAb (A) and 9A2.7 mAb (B). Quick score reported for each mAb are shown (A, B). C, ratio of quick score SUM190 over human skin. […]
Remaining blocks were stored at −80° C. until further use. […] Several dilution of each mAb were tested to optimize noise to signal ratio and 0.5 μg/ml of mouse 15A7.5 mAb and 10 µg/mL of mouse 9A2.7 mAb were determined as optimal. […] Both the stained cells proportion and the staining intensity were evaluated for each field. […] Scoring procedure was as follows: (i) The proportion of cells stained positively was estimated and a score from 0 to 4 was be assigned for each field (0=0-5%; 1=5-25%; 2=25-50%; 3=50-75%; and 4=75-100%); and (ii) The staining intensity was scored as 0, 1, 2, or 3 corresponding to the presence of negative, weak, intermediate, and strong brown staining, respectively. […]

B1: Ch-5A12.2: chimeric antibody of 5A12.2 (antibody, V domains shown)
VH: QIQLQQSGAELVKPGASVTLSCKTSGFTFNSMYISWLKQKPGQSLEWIAWIYAGTGGTRFNQKFTGKVQLTVDTSSSTAYMQFSSLTTDDSAIYYCAIRSGFVPMDYWGQGTSVTVSS
VL: SIVMTQTPKFLLVSAGDRVTITCKASQSVSNDVAWYQQKPGQSPKLLIYYASNRYTGVPDRFTGSGYGTDFTFTISTVQAEDLAVYFCQQDYSSPWTFGGGTKLEIK
- recognition of human Nectin-4 (human Nectin-4 [1]): recognize human Nectin-4

B2: HA22: human monoclonal anti-Nectin-4 antibody described in WO2012/047724, antibody of Enfortumab vedotin (antibody, V domains shown)
VH: EVQLVESGGGLVQPGGSLRLSCAASGFTFSSYNMNWVRQAPGKGLEWVSYISSSSSTIYYADSVKGRFTISRDNAKNSLSLQMNSLRDEDTAVYYCARAYYYGMDVWGQGTTVTVSS
VL: DIQMTQSPSSVSASVGDRVTITCRASQGISGWLAWYQQKPGKAPKFLIYAASTLQSGVPSRFSGSGSGTDFTLTISSLQPEDFATYYCQQANSFPPTFGGGTKVEIK
- recognition of the IgV domain of Nectin-4 (human Nectin-4 [2]): recognize the IgV domain of Nectin-4

B3: HA22-MC-GGFG-DX8951 (conjugate, chains of the INN, looked up)
VH: EVQLVESGGGLVKPGGSLKLSCAASGFAFSIYDMSWVRQTPEKCLEWVAYISSGGGTTYYPDTVKGRFTISRDNAKNTLYLQMSSLKSEDTAMYYCARHSGYGTHWGVLFAYWGQGTLVTVSA
VL: DIQMTQTTSSLSASLGDRVTISCRASQDISNYLNWYQQKPDGTVKLLIYYTSILHSGVPSRFSGSGSGTDYSLTISNLEQEDFATYFCQQGNTLPWTFGCGTKLEI
modifications: MC-GGFG-DX8951 (exatecan) payload
- tumor regression (SUM190PT cells): induces a long-lasting tumor regression period

B4: mAb 3A1.4: monoclonal anti-Nectin-4 antibody characterized by SEQ ID NO:s 96-103 (antibody, V domains shown)
VH: DVQLQESGPSLVKPSQTLSLTCSVTGDSITSGYWNWIRKFPGNKLEYMGYISNSGITYYNPSLKSRISITRDTSKNQYFLQLNSVTAEDTATYYCTRFGSTMILYYTMDYWGQGTSVTVSS
VL: DIVMTQSPVTLSVTPGDRVSLSCRASQSISDYLHWYQQKSQESPRLLIKYASKSISGIPSRFSGSGSGSNFTLSINSVEPEDVGVYYCQNGHSFPLTFGAGTKLELK
modifications: VH_3A1.4; VK_3A1.4
- affinity to Nectin-4 expressed by tumors in comparison to Nectin-4 expressed by human keratinocytes [3]: higher affinity
